Experimental data reported in US20160000054A1, “HUMAN-DERIVED MUTANTS OF THE dSOD1 GENE IN DROSOPHILA AND METHODS OF MAKING AND USING” (priority 2014, published 2016).

Columns and labels:
Assay type in all cases: in vivo, Drosophila melanogaster
[1] = test system: dSod1-G85R and dSod1-H71Y mutant larvae; assay: Larval locomotor (motility) defect in dSod1 mutant larvae; conditions: expression of Gbb
From the text: (§1) The genetically accurate model of ALS disclosed herein, can be used to elucidate not only the behavioral and electrophysiological changes, but also the cellular and molecular basis of disease progression. ALS-associated loss in motor neuron function and subsequent cell death has been attributed to defects in a number of processes from protein aggregation, increases is axonal membrane excitability, mitochondrial dysfunction, to changes in RNA metabolism and general metabolic homeostasis (49-55). This model system was used to explore the involvement of these processes in disease progression. […] The time of death varied between the different dSod1 mutations with <0.1% dSod1-G85R adults emerging from the pupal case (a feat requiring considerable muscle strength) to 33% emergence by the less severe dSod1-H71Y followed by death within 7-10 days of adulthood. […] Characterization of this progressive loss in motor function in detail during can be performed using immunohistochemical markers of muscle, as well as Drosophila lines expressing GFP-tagged muscle proteins (Mhc-mCD8-GFP) that allow visualization of muscles in living animals. Examination of the innervation of the muscles in controls and mutants is done by concomitant labeling of the MNs (CD8-RFP driven in MNs). […]

dSod1-G85R mutants = assay: Spontaneous motor neuron activity recorded from larval muscles with motor circuit intact; conditions: expression of Gbb
From the text: Consistent with the reduced motility observed in dSod1-G85R late 3rd instar larvae, there was a concordant reduction in the spontaneous activity of MNs when recorded from larval muscles in preparations with the motor circuit intact (brain and ventral nerve cord (VNC) remain attached to the body wall muscles). […] These analyses, coupled with studies on muscle structure can provide a well-defined depiction of disease progression. While ALS paralysis results from a dramatic degeneration of MNs and atrophied muscles, it is unclear when and where the decline in function originates. It could begin in a specific set of cells or the loss of function could be a systemic effect. This can be addressed using the Drosophila model system disclosed herein. For example, directed expression of channel-rhodopsin (ChR2) to specific cells or neurons can be done, followed by excitation of those cells with a flash of light and recording of the response in the circuit output of a particular larval muscle. Driving UAS-ChR2 within different neurons (OK371Gal4 in motorneurons, ChaGal4 in cholinergic neurons, specific neural Gal4 lines from Janeila Farm collection) (55) can be done to address the integrity of the neural circuit and interrogate the function of individual neurons.
Gbb, the Drosophila orthologue of vertebrate BMPs 5, 6, 7, acted as a retrograde signal at the NMJ (56). […]

G85R/H71Y = assay: Adult eclosion (emergence from the pupal case); conditions: G85R/H71Y flies; expression of Gbb; 15% without Gbb
From the text: as §1

B1: Gbb: the Drosophila orthologue of vertebrate BMPs 5, 6, 7; expressed genetically in the flies, not dosed (protein, UniProt P27091 336-455, looked up)
Protein 60A: SVSPNNVPLLEPMESTRSCQMQTLYIDFKDLGWHDWIIAPEGYGAFYCSGECNFPLNAHMNATNHAIVQTLVHLLEPKKVPKPCCAPTRLGALPVLYHLNDENVNLKKYRNMIVKSCGCH
With B1 the locomotor defect ([1]; dSod1-G85R mutant larvae) was “rescued”, the locomotor defect ([1]; dSod1-H71Y mutant larvae) was “rescued” and the “spontaneous MN activity” value (dSod1-G85R mutants) was “restored normal spontaneous MN activity”. For the same molecule, the eclosion (G85R/H71Y) was 45%.
